The numbers were not newly measured in article PMC12669185, which cites them from elsewhere.

Broadly, the Kd is the equilibrium constant for the complex coming apart.

The data set concerns the target CCR2 (Homo sapiens) (UniProt P41597).
Sequence of UniProt P41597 (P41597 whole entry): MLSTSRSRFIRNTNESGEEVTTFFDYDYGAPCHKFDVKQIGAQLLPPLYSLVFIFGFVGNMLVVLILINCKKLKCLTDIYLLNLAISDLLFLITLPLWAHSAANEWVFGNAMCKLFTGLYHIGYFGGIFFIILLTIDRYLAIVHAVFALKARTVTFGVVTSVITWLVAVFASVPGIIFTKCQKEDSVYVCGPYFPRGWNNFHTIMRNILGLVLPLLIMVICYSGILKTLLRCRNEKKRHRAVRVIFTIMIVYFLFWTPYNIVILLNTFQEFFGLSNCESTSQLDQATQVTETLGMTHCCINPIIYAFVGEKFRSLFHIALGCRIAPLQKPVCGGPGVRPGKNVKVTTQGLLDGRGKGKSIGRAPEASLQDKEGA

As for CCL2 (from UniProt P13500), the Kd was 0.77 nM.
